Series [1] has as its target plasma kallikrein (human).
The series “SAXS” concerns the molecule itself. Nature of the series: SAXS.

Usually stoichiometry N stands for the number of molecules, sites or subunits per partner or assembly.

In series [1], “recombinant ITIH4 (ITIH4 WT) (from UniProt Q14624 29-930) (natural protein)” displayed an IC50 of ITIH4 on cleavage of HMWK by plasma kallikrein in Ca2+/Mg2+, SDS-PAGE of 90 nM.

B1: recombinant ITIH4 (ITIH4 WT) (natural protein, human, UniProt Q14624 29-930, looked up)
chain: EKNGIDIYSLTVDSRVSSRFAHTVVTSRVVNRANTVQEATFQMELPKKAFITNFSMIIDGMTYPGIIKEKAEAQAQYSAAVAKGKSAGLVKATGRNMEQFQVSVSVAPNAKITFELVYEELLKRRLGVYELLLKVRPQQLVKHLQMDIHIFEPQGISFLETESTFMTNQLVDALTTWQNKTKAHIRFKPTLSQQQKSPEQQETVLDGNLIIRYDVDRAISGGSIQIENGYFVHYFAPEGLTTMPKNVVFVIDKSGSMSGRKIQQTREALIKILDDLSPRDQFNLIVFSTEATQWRPSLVPASAENVNKARSFAAGIQALGGTNINDAMLMAVQLLDSSNQEERLPEGSVSLIILLTDGDPTVGETNPRSIQNNVREAVSGRYSLFCLGFGFDVSYAFLEKLALDNGGLARRIHEDSDSALQLQDFYQEVANPLLTAVTFEYPSNAVEEVTQNNFRLLFKGSEMVVAGKLQDRGPDVLTATVSGKLPTQNITFQTESSVAEQEAEFQSPKYIFHNFMERLWAYLTIQQLLEQTVSASDADQQALRNQALNLSLAYSFVTPLTSMVVTKPDDQEQSQVAEKPMEGESRNRNVHSGSTFFKYYLQGAKIPKPEASFSPRRGWNRQAGAAGSRMNFRPGVLSSRQLGLPGPPDVPDHAAYHPFRRLAILPASAPPATSNPDPAVSRVMNMKIEETTMTTQTPAPIQAPSAILPLPGQSVERLCVDPRHRQGPVNLLSDPEQGVEVTGQYEREKAGFSWIEVTFKNPLVWVHASPEHVVVTRNRRSSAYKWKETLFSVMPGLKMTMDKTGLLLLSDPDKVTIGLLFWDGRGEGLRLLLRDTDRFSSHVGGTLGQFYQEVLWGSPAASDDGRRTLRVQGNDHSATRERRLDYQEGPPGVEISCWSVEL
B1: the “stoichiometry N” value in the series “SAXS” was found to be 2.

The values above are taken from article PMC7793589 (Science Advances, 2021).
